Data: patent US20090191187A1 (published 2009)

Legend:
[1] = target: T1, human interleukin-1 receptor on cells (MRC-5 human embryonic lung fibroblasts; human blood cells) (human, UniProt P14778 18-569); test: cell-based or functional assay
T1 sequence (looked up): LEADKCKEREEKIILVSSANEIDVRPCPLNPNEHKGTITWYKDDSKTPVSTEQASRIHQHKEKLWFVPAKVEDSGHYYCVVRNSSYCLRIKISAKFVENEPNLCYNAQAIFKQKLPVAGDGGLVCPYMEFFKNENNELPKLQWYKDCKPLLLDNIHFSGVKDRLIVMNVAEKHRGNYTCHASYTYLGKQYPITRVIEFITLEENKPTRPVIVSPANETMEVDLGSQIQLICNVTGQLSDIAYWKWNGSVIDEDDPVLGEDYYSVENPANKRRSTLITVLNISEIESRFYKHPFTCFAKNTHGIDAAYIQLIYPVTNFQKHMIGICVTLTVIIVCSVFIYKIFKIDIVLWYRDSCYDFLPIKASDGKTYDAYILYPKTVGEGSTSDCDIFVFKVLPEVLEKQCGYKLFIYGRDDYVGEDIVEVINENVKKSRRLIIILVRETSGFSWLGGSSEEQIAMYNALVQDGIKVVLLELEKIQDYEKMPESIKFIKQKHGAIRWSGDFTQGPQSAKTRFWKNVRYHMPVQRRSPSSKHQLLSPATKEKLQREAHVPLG

[2] = target: T2, recombinant soluble human type 1 IL-1 receptor (extracellular domain, glycosylated) (human, UniProt P14778 21-333, N-glycosylated (from SF9 insect cells); biotinylated in the ELISA of Examples 2 and 4c); test: ELISA on biotinylated human IL-1R on streptavidin plates
T2 construct: also called hIL-1R; rshIL-1R
T2 sequence: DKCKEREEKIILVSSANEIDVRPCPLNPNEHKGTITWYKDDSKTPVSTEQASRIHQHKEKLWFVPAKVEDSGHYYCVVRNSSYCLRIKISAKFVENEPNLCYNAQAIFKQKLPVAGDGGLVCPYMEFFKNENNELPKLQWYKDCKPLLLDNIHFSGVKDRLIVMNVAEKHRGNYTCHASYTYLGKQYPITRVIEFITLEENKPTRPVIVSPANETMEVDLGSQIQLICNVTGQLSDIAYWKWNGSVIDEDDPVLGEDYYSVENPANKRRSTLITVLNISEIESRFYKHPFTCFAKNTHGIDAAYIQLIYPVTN
Description: The relative immunactivity of the antibodies as compared to 2D8 antibody was determined by ELISA. A soluble biotinylated human IL-1R was coated at room temperature for one hour to 96-well-plates (precoated with streptavidin). After blocking with BSA the antibody was diluted and added to the wells and incubated at room temperature for two hours. The plates were washed three times and incubated with horse-radish-peroxidase (POD)-conjugated rabbit-anti-rat-IgG at room temperature for one hour. After further washing the amount of bound antibody was determined by addition of TM-Blue® ([…]) and measurement of the absorbance at 370 nm.

[3] = target: T2, recombinant soluble human type 1 IL-1 …; test: SPR competition: IL-1R (10 nM) preincubated with DEI5/8, injected over immobilized 2D8 (competitor); first assay: immobilized 2D8
Description: The protein-protein interaction of anti-IL-1R antibodies with IL-1R is analyzed by surface plasmon resonance using a Biacore 3000 System. Association rates are determined by an injection of two minutes duration; dissociation rates are measured by a washing step of three minutes duration. Negative control data are subtracted from original curves for correction of system intrinsic baseline drift and for noise signal reduction. Two assay formats with the antibody and IL-1R immobilized to the chip surface are used for this study.
a) Anti-IL-1R antibody 2D8 is covalently immobilized on the chip surface (CM5) by amine coupling. IL-1R is injected in a concentration of 10 nM under mass transfer conditions in order to determine the maximum signal which serves as a reference in the inhibition studies. Inhibition of IL-1R (10 nM) binding is measured by preincubation (in HBS—P buffer for at least 20 min at room temperature) of IL-1R with increasing concentrations (0.78-100 nM) of IL-1R antagonist, IL-1beta or DEI5/8. Subsequently, the samples are injected into the flow cells and interaction with immobilized 2D8 antibody is determined.

Bioassay (IC50 in relation to 2D8), 1st experiment [1]: 1.7 relative to 2D8
Bioassay (IC50 in relation to 2D8), 2nd experiment [1]: 2.2 relative to 2D8
Bioassay (IC50 in relation to 2D8), Mean [1]: 2 relative to 2D8
ELISA (absorbance at 370 nm in relation to 2D8), 1st experiment [2]: 1.4 relative to 2D8
ELISA (absorbance at 370 nm in relation to 2D8), 2nd experiment [2]: 1.9 relative to 2D8
ELISA (absorbance at 370 nm in relation to 2D8), mean [2]: 1.7 relative to 2D8
IC50 [3]: 2 nM
B1: DEI5/8 (antibody, human IgG4, kappa, V domains shown)
VH: QLQLQESGPGLVKPSQTLSLTCTVSGLSLTSNSITWIRQPPGKGPEWMGMIWSNGDTDYSTSLKSRLTISKDTSKSQVVLTMTNMDPVDTATYYCARYNYYFDYWGQGTLVTVSS
VL: DIVLTQSPATLSLSPGERATLSCKASQNVDNRGVSYVHWYQQKPGQAPKLLIYKGSNLAFGVPSRFSGSGSGTDFTLTISSLQPEDFATYFCQQSKGHPDTFGAGTKLELKR
notes: also called combination of HURDIVHv5 and HURDIVKv8
